One assay has as its target T1, BLyS (Homo sapiens, UniProt Q9Y275).
T1 construct: A DNA fragment encoding human BAFF (residues 82-285) was cloned; His-tag (with thrombin cleavage site) (N, cleaved yes); made in house; host or cells: E. coli BL21 (DE3)
Put plainly: Competitive displacement ELISA (biotinylated miniBR3), peptide-PEG conjugates. It counts as binding. The procedure: The plate was washed with PBS and blocked with 1% skim milk in PBS. […] After washing with PBS/0.05% Tween, 100 μl well of each dilution was transferred and incubated for 1 hour at room temperature. The plate was washed with PBS/0.05% Tween and incubated 15 min with 100 μl/well of 0.1 U/ml Streptavidin-POD (Boehringer Mannheim) in PBS/0.05% Tween.
For orientation: ELISA stands for enzyme-linked immunosorbent assay.

Another assay concerns B cells. Put plainly: B cell depletion by anti-CD20 mAb, BR3-Fc or combination in hCD20+ mice (FIG. 29, 30). It counts as in vivo, mouse. The procedure:
FACS analysis was performed on of spleen, blood, lymph node B cells (gated on CD21^+CD23^+).
Mice were treated with control IgG2a, BAFFR/BR3-Fc (100 μg/mouse IP daily for 12 days), anti-hCD20 mAb (100 μg/mouse IP on day 9) or the combination of BAFFR/BR3-Fc and anti-hCD20 mAb (same dosing as single treatment groups). B220^+ splenocytes were isolated on day 13 and stained for CD21 and CD23. N=5 mice/group.
In the Experimental Examples, the BR3-Fc or BAFFR/BR3-Fc used is hBR3-Fc of SEQ ID. NO. 2. […] Each group consisted of 4 mice. Two days following the last injection, the mice were sacrificed and analyzed for hCD20^+ B cells. FACS analysis of spleen, blood, lymph node and Peyer's Patches were analyzed for B cell markers (CD21^+CD23^+).
For the experiment shown in FIG. 30, hCD20 Tg+ mice were treated with control IgG2a, BAFFR/BR3-Fc (100 μg/mouse IP daily for 12 days), anti-hCD20 mAb (100 μg/mouse IP on day 9) or the combination of BAFFR/BR3-Fc and anti-hCD20 mAb (same dosing as single treatment groups). B220^+ splenocytes were isolated on day 13 and stained for CD21 and CD23. N=5 mice/group. […] The mice were treated with single doses of 0.1 mg control IgG2a, BAFF/BR3-Fc or anti-hCD20 mAb. Splenocytes were analyzed on day 4. N=5 mice/group.

A short description of assay [1]: Serum IgG and IgM in BR3-Fc treated mice. It counts as in vivo, mouse.
Assay [2] in a line: Expected serum IgG and IgM in responding human patients. Type of assay: in vivo. To be noted: human patients responding to treatment.
The target of another assay is T2, BAFF/BLyS (Mus musculus, UniProt Q9WU72).
T2 construct: host or cells: lupus-prone mice
To be noted: lupus-prone mice; cited from earlier work.

Assay [3] has as its target T3, human BAFF (residues 82-285) (human, UniProt Q9Y275 82-285).
T3 construct: Coated on plates in the ELISAs; also used biotinylated or free in solution for phage sorting; also called BAFF82-285; BLyS82-285
The experiment in a line: phage display selection on BAFF.

The target of assay [4] is T3, human BAFF (residues 82-285). Put plainly: competitive displacement ELISA on BAFF-coated plates, biotinylated miniBR3 as tracer.

Broadly, the IC50 is the concentration at which inhibition is half-maximal. A high value points to weaker potency.

Where a SMILES comes first, the peptide text is derived from it. Bridges are numbered along the chain shown (N, C = ends). Where no end group is shown, it is not given here.

T1 sequence (Q9Y275 82-285): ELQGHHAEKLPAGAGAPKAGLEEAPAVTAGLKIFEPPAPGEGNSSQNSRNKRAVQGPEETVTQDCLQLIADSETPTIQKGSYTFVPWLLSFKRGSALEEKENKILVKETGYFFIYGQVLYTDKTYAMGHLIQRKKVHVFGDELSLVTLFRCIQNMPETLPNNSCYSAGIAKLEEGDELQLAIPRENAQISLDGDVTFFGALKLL
T3 sequence (Q9Y275 82-285): as above
T2 sequence (Q9WU72 127-309 limits assumed): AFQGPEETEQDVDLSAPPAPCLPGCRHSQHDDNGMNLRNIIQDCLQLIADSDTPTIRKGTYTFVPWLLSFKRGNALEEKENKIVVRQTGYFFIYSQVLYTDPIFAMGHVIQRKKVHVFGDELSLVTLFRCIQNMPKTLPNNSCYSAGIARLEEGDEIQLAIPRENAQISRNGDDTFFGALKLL

For the molecule `CC(=O)N[C@@H](CCC(=O)O)C(=O)N[C@H]1CSSC[C@@H](C(=O)NCC(=O)N[C@@H](CC(C)C)C(=O)N[C@@H](CC(C)C)C(=O)N[C@@H](CCCNC(=N)N)C(N)=O)NC(=O)[C@@H]2CCCN2C(=O)[C@H](C(C)C)NC(=O)[C@H](Cc2c[nH]c3ccccc23)NC(=O)[C@H](Cc2c[nH]cn2)NC(=O)[C@H](CCCNC(=N)N)NC(=O)[C@H](C(C)C)NC(=O)[C@H](CC(C)C)NC(=O)[C@H](CC(C)C)NC(=O)[C@H](CC(=O)O)NC(=O)[C@H](Cc2ccccc2)NC1=O` [BLyS0048] (Ac-ECFDLLVRHWVPCGLLR-NH2; disulfide 2-13), the IC50 on BLyS (3 ng/ml biotinylated miniBR3, four-parameter fit) was found to be 14 nM; on BLyS (separate experiment), 15 nM. For the molecule “BR3-Fc: hBR3-Fc immunoadhesin of SEQ ID NO. 2, BAFF antagonist”, in the assay on B cells (hCD20+ mice), the “T2 and follicular B cells in the spleen” value is “decreases”; the “marginal zone B cells in the spleen” value was “decreases”. For the same molecule, the “mature circulating B cells in the blood and lymph nodes” value with B cells (hCD20+ mice, 100 micrograms every other day Days 1 through 12) is given as “decreases”. Besides, the “MZ and T2/FO B cells in spleen (FIG. 30, panel 3)” value with B cells (treatment for ~2 weeks, 100 μg/mouse IP daily for 12 days, splenocytes day 13) was “marked decrease”. The “Serum levels of IgG and IgM” value in assay [1] is given as “reduced”. Also, the “serum IgG and IgM levels” value in assay [2] is “reduction in serum IgG and IgM levels”. Moreover, the “autoimmune serologies, renal pathology and mortality” value with BAFF/BLyS is “improved autoimmune serologies, renal pathology and mortality”. Regarding ECFDRLVRAWVPCTALT (disulfide 2-13 (inferred)) [SEQ ID NO 114], the binding result in assay [3] is listed as “binds”. Same read-out and setting: then ECFDILVDRWVPCAILH (disulfide 2-13 (inferred)) [SEQ ID NO 97], with “binds”.

Regarding ECFDPLVGHWVPCSVLT (disulfide 2-13 (inferred)) [SEQ ID NO 106], in assay [3], the binding result is “binds”. ECFDPLVRIWVACDRLA [SEQ ID NO 103]: the binding result in assay [3] is reported as “binds”. On to ECFDPLVRVWVPCTVLR [SEQ ID NO 118], for which, in assay [3], the binding result is listed as “binds”. Still for that read-out and setting: with ECFDPLVRDWVRCDILT (disulfide 2-13 (inferred)) [SEQ ID NO 117] the entry was “binds”; with ECFDLLVRAWVPCSVLK [SEQ ID NO 94], “binds”. Consider ECFDTLVNAWVPCNLLD (disulfide 2-13 (inferred)) [SEQ ID NO 122], for which the binding result in assay [3] is “binds”. As for ECFDLLVNRWVDCRLLI [SEQ ID NO 102], the binding result in assay [3] is recorded as “binds”.

With ECFDLLVRRWVPCHLIT [SEQ ID NO 115], the binding result in assay [3] was “binds”. With ECFDSLVNAWVPCSAIR (disulfide 2-13 (inferred)) [SEQ ID NO 101], in assay [3], the binding result is reported as “binds”. ECFDSLVRLWVPCNLLR [SEQ ID NO 110]: the binding result in assay [3] is on record as “binds”.

As for ECFDLLVRQWVSCELLS [SEQ ID NO 95], in assay [3], the binding result is “binds”. Turning to ECFDRLVGHWVPCAALI (disulfide 2-13 (inferred)) [SEQ ID NO 98], the binding result in assay [3] is on record as “binds”. Same read-out and setting: then ECFDRLVNGWVPCAVLH (disulfide 2-13 (inferred)) [SEQ ID NO 123], with “binds”; and ECFDPLVNRWVDCVALH (disulfide 2-13 (inferred)) [SEQ ID NO 107], with “binds”. ECFDRLVNLWVDCALLN (disulfide 2-13 (inferred)) [SEQ ID NO 108]: in assay [3], the binding result is “binds”. As for ECFDRLVNRWVPCNLIV (disulfide 2-13 (inferred)) [SEQ ID NO 113], the binding result in assay [3] is reported as “binds”. For the molecule ECFDPLVGRWVPCTLLH (disulfide 2-13 (inferred)) [SEQ ID NO 104], the binding result in assay [3] is reported as “binds”. Take Ac-ECFDLLVRAWVPCSVLK-NH2 (disulfide 2-13 (inferred)) [Ac-ECFDLLVRAWVPCSVLK-NH2 (BLyS0051)]: the binding result in assay [4] is “binds”. Consider ECFDPLVRVWVDCSILD (disulfide 2-13 (inferred)) [SEQ ID NO 100], for which the binding result in assay [3] is recorded as “binds”. As to Ac-ECFDLLVRHWVACGLLR-NH2 (disulfide 2-13 (inferred)) [Ac-ECFDLLVRHWVACGLLR-NH2 (BLyS0027)], the binding result in assay [4] is listed as “binds”.

For ECFDVLVHRWVPCGLIR [SEQ ID NO 120], the binding result in assay [3] is given as “binds”. In the case of ECFDLLVNDWVPCGAIT (disulfide 2-13 (inferred)) [SEQ ID NO 125], in assay [3], the binding result is “binds”. In the case of ECFDVLVSAWVDCARLN (disulfide 2-13 (inferred)) [SEQ ID NO 109], the binding result in assay [3] is on record as “binds”. The same measure, in the same setting: then ECFDALVHRWVDCAVLG (disulfide 2-13 (inferred)) [SEQ ID NO 127], with “binds”. In the case of ECFDPLVARWVPCHLIN (disulfide 2-13 (inferred)) [SEQ ID NO 99], in assay [3], the binding result is “binds”.

ECFDSLVRAWVPCGVLS [SEQ ID NO 119]: the binding result in assay [3] was “binds”. With ECFDILVNAWVPCRVIG (disulfide 2-13 (inferred)) [SEQ ID NO 112], in assay [3], the binding result was “binds”. On to ECFDRLVNAWVDCRLLA (disulfide 2-13 (inferred)) [SEQ ID NO 124], for which, in assay [3], the binding result is given as “binds”. Turning to ECFDLLVRAWVPCHLID [SEQ ID NO 105], the binding result in assay [3] is given as “binds”. Still for that read-out and setting: then ECFDLLVRGWVDCSLLL [SEQ ID NO 96], with “binds”; and ECFDALVRRWVDCSLLR [SEQ ID NO 126], with “binds”; and ECFDHLVRIWVPCTALA (disulfide 2-13 (inferred)) [SEQ ID NO 121], with “binds”. Turning to ECFDILVGRWVPCGLIH (disulfide 2-13 (inferred)) [SEQ ID NO 116], the binding result in assay [3] is “binds”.

(Values after US20050163775A1, “Combination therapy for B cell disorders” (Genentech, Inc., priority 2003, published 2005).)
